The labels stand for the following.
B1: Rad Ser272 peptide (peptide)
peptide: ARRQAGTRRRESLGK
notes: Rad GTPase C-terminal tail, residues 261-275 around Ser272; also called Rad S272 peptide; S272 peptide; source: synthetic peptide
B2: CaV1.2 Ser1981 peptide (peptide)
peptide: RGFLRSASLGRRASFHL
notes: human CaV1.2 (α1c subunit) C-terminal tail, residues 1968-1984 around the PKA site Ser1981; also called S1981 peptide; CaV1.2 S1981 peptide; source: synthetic peptide
B3: CaV1.2 Ser1981 peptide F1982A (peptide)
peptide: RGFLRSASLGRRASAHL
notes: human CaV1.2 residues 1968-1984 with F1982A (P+1 position); also called F1982A peptide; S1981 (F1982A); source: synthetic peptide
B4: CaV1.2 Ser1981 peptide L1971A (peptide)
peptide: RGFARSASLGRRASFHL
notes: also called L1971A peptide; S1981 (L1971A); source: synthetic peptide
B5: CaV1.2 Ser1981 peptide S1975R (peptide)
peptide: RGFLRSARLGRRASFHL
notes: also called S1975R peptide; S1981 (S1975R); source: synthetic peptide
B6: Rad Ser25 peptide (peptide)
peptide: GAGRERDRRRGSTPW
notes: Rad GTPase N-terminal tail, residues 14-28 around Ser25; also called Rad S25 peptide; source: synthetic peptide

The experiment deals with catalytic subunit of PKA, isoform alpha, residues 16-351 (PKAcα_(16-351)), preparation for ITC (mouse, UniProt P05132-1 16-351). Put plainly: ITC; peptide or substrate (1.25 to 4.3 mM) titrated into the cell containing PKAc (149 to 204 μM); 4 °C; 50 mM Hepes (pH 7.4), 150 mM KCl, 5 mM MgCl2, 2 mM TCEP; 0.5 mM AMP-PNP in both solutions. The conditions noted are these: both partners purified.
In the case of B1, the equilibrium dissociation constant (Kd) amounted to 126 µM, the dH was -4.06 kcal/mol and the “stoichiometry N” value was found to be 0.98.

As for B2, the affinity, expressed as Kd, was 34 µM; the dH is 3.11 kcal/mol; the “stoichiometry N” value came to 0.98.

In the case of B3, the Kd is 147 µM, the dH is 2.46 kcal/mol and the “stoichiometry N” value amounted to 0.99.

As to B4, the Kd was determined as 18 µM, the dH is 2.63 kcal/mol and the “stoichiometry N” value came out at 1.06.

B5: the Kd came out at 532 µM, the dH worked out at 3.35 kcal/mol and the “stoichiometry N” value worked out at 1.08.

Regarding B6, the equilibrium dissociation constant (Kd) turned out to be 460 µM, the dH is -2.61 kcal/mol and the “stoichiometry N” value came out at 0.83.

These data come from publication PMC11728977, “Crystallographic, kinetic, and calorimetric investigation of PKA interactions with L-type calcium channels and Rad GTPase” (The Journal of Biological Chemistry, 2024).
